According to publication PMC5548637 (International journal of biological macromolecules, 2017):

Biological target: the molecule itself
Experiment: AUC

B1: TBC1D4 CTR (TBC1D4 1192-1299) with His6-tag (domain or fragment, human, UniProt O60343 1192-1298, looked up)
chain: SCEDSETLEKLERANSQLKRQNMDLLEKLQVAHTKIQALESNLENLLTRETKMKSLIRTLEQEKMAYQKTVEQLRKLLPADALVNCDLLLRDLNCNPNNKAKIGNKP
stoichiometry N: 2

B2: TBC1D4 RabGAP-CTR1 (TBC1D4 865-1299) with His6-tag (domain or fragment, human, UniProt O60343 865-1298, looked up)
chain: ASRDELQSRKVKLDYEEVGACQKEVLITWDKKLLNCRAKIRCDMEDIHTLLKEGVPKSRRGEIWQFLALQYRLRHRLPNKQQPPDISYKELLKQLTAQQHAILVDLGRTFPTHPYFSVQLGPGQLSLFNLLKAYSLLDKEVGYCQGISFVAGVLLLHMSEEQAFEMLKFLMYDLGFRKQYRPDMMSLQIQMYQLSRLLHDYHRDLYNHLEENEISPSLYAAPWFLTLFASQFSLGFVARVFDIIFLQGTEVIFKVALSLLSSQETLIMECESFENIVEFLKNTLPDMNTSEMEKIITQVFEMDISKQLHAYEVEYHVLQDELQESSYSCEDSETLEKLERANSQLKRQNMDLLEKLQVAHTKIQALESNLENLLTRETKMKSLIRTLEQEKMAYQKTVEQLRKLLPADALVNCDLLLRDLNCNPNNKAKIGNKP
stoichiometry N: 2
